Target: MaRAP2-4 (Mentha arvensis, UniProt A0A1Z2X6Y3 1-315)
Experiment: EMSA; DIG Gel Shift Kit 2nd Generation (Roche), manufacturer's protocol; buffer, pH and temperature not stated
Conditions: protein: recombinant; tags: GST (pGEX-4T2); label: DIG

Chain of MaRAP2-4 (A0A1Z2X6Y3 entry or part of it): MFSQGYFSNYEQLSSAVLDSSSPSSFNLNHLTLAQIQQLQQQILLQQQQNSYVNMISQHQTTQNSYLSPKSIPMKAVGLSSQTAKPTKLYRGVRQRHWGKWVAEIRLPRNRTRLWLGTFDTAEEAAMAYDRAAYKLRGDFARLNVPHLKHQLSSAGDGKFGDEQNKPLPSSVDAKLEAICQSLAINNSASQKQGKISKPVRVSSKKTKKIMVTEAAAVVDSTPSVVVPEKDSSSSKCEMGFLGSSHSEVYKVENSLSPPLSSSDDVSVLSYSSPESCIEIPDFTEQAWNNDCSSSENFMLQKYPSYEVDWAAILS

B1: AtSWEET10 promoter probe with DRE only (dsDNA)
DNA 1: AATTTCGCATGCCGACATCAATGTGCGCACAACA
DNA 2: TGTTGTGCGCACATTGATGTCGGCATGCGAAATT
  binding result: binds

B2: AtSWEET10 promoter probe with overlapping DRE and GCC (dsDNA)
DNA 1: ATGATTCACGGCCGCCGACGCCGTTCGTTACCA
DNA 2: TGGTAACGAACGGCGTCGGCGGCCGTGAATCAT
  binding result: binds

Source: paper PMC5785340, “MaRAP2‐4, a waterlogging‐responsive ERF from Mentha, regulates bidirectional sugar transporter AtSWEET10 to modulate stress response in Arabidopsis”
